The test system of the data set is ZNF506 ZF1-8 (C-terminal zinc finger array) (human). The experiment in a line: ITC. The settings on record: ITC (MicroCal PEAQ-ITC): 100 mM Tris pH 8, 500 mM NaCl, 25 uM ZnCl2, 10 mM reduced glutathione; protein 20 uM, DNA 200 nM as printed; temperature not stated.

As for PBS-Pro 28 bp dsDNA probe, the Kd came out at 840 nM.
